Experimental data from patent publication US20240324599A1, “PESTICIDAL ENZYMES FOR USE ON NEMATODES, INSECTS, AND MOLLUSKS” (priority 2023, published 2024).
Where two headings read alike, the source gives them in different places.

Assays:
Type in all cases: in vivo
[1] = tested on: soybean cyst nematode (SCN, Heterodera glycines); test: Controlled environment soybean seed treatment trial: SCN cysts on roots; settings: Table 16
[2] = tested on: SCN juveniles (SCN HG type 1.2.5.7, race 2)
Excerpt: To identify an additional esterase enzyme with efficacy in reducing SCN viability, we performed an in-vitro plate assay with a Pseudomonas sp. esterase (SEQ ID NO: 248) free enzyme direct treatment. The Pseudomonas sp. esterase (SEQ ID NO: 248) was produced by fermentation in Bacillus subtilis. The enzyme was cloned into a Bacillus expression plasmid p1797 with isopropyl β-d-1-thiogalactopyranoside (IPTG) inducible expression. The plasmid was transformed into B. subtilis, and the gene sequence was confirmed. The strain was grown in rich media until an optical density (OD) 0.2-0.5 was reached. Enzyme expression was then induced by addition of […] IPTG. Following the culture harvest, cells were removed by filtration through a […] filter. The culture filtrate containing the secreted enzyme was then collected and used for further applications.
(§1) SCN eggs were obtained from SCN HG type 1.2.5.7, race 2. Eggs were rinsed 4 times with sterile water. Eggs were transferred to a 6-well plate and resuspended in 5 mL of 3 mM ZnSO4. The plate was sealed with parafilm, covered with aluminum foil to prevent light from entering the plate, and placed in a plate growth chamber at 25° C. and 80% relative humidity. After 6-7 days of incubation, an estimate of hatched SCN juveniles was obtained from the well to determine the overall number of juveniles per 10 μL. The concentration of the hatchery solution was adjusted until it consisted of 20-30 juveniles per 10 μL.
Potato dextrose agar media containing chloramphenicol and chlortetracycline was prepared and added to sterile twenty-four-well cell culture plates (1 mL per well). The plates were divided according to the pre-determined N-value for each treatment (N=12-24). Each treatment being tested was added to the agar surface within each well at a rate of 40 μL per well. Without allowing the treatments to dry, 10 μL of the prepared nematode mixture was added to the agar surface within each well.
To quantify the treatments' effects on nematode viability, the nematodes were examined under a dissecting microscope at 20× magnification. Initial (T0) values for the number of live juveniles, number of dead juveniles and total number of juveniles were recorded immediately after preparation of each well. The plates were then wrapped in parafilm around the open edge, encased in aluminum foil, and placed in secondary containment. The secondary containment was placed in a plant growth chamber at 25° C. and 80% relative humidity. At approximately 24 hours post addition of juveniles, the plates were evaluated, and the number of live juveniles, dead juveniles and total number of juveniles were recorded (T24).
The difference in percent death at T0 vs T24 was calculated by subtracting the percent dead at TO [(#dead juveniles/total #juveniles)×100] from the percent dead at T24 [(#dead juveniles/#total juveniles originally present)×100]. […] If the ANOVA indicated a significant difference existed among treatments, Tukey's HSD post hoc test was used to perform a pairwise contrast between each set of treatments. Different letters denote statistically significant results at P<0.05.
as §1, with “from” for “from SCN”, “rinsed four” for “rinsed 4”, “and 80-90%” for “and 80%”, “from each” for “from the”
Potato dextrose agar media containing chloramphenicol and chlortetracycline was prepared and added to sterile twenty-four-well cell culture plates (1 mL per well). […]

soybean = test: Field trial: Feruloyl Esterase soybean seed treatment, yield; settings: for Yield: soybean seed treatment, 1.0 fl oz/unit with Control Base Package
Excerpt: 1 fl oz/unit of Feruloyl Esterase (SEQ ID NO:91) was coated onto soybean seeds treated with Fludioxinil fungicide, metalaxyl fungicide, thiamethoxam […], Seedwork 1037L polymer, and Sensient Red (colorant). A control treatment without esterase enzyme was also created. The seed treated with esterase and control seed was planted in replicated trials distributed across 5 replicated plots with 4 replicates of 30 ft^2 each at each site.

corn = test: Field trial: PytH Esterase corn seed treatment, yield; settings: for Yield: corn seed treatment, 0.5 fl oz/unit with Control Base Package
Excerpt: 0.5 fl oz/unit of PythH Esterase from recombinant Bacillus subtilis fermentation (SEQ ID NO: 255) was coated onto Hybrid corn seeds treated with Fludioxinil fungicide, ipconazole fungicide, peridium 1006 polymer, and Sensient Red (colorant). A control treatment without esterase enzyme was also created. The seed treated with esterase and control seed was planted in replicated trials distributed across 10 replicated plots with 4 replicates of 100 ft2 each at each site.

[3] = tested on: Diamondback moth (Plutella xylostella); test: Diet-surface overlay (DSO) bioassay; settings: Table 44, Lipase 0.14 U/mL diet
Method: (§2) Diet-surface overlay bioassays are conducted with artificial diet mixes without antibiotics in 1.5 cm^2 cell bioassay trays(s). Artificial diets are commercially available from Southland Products Inc. Diets were prepared by dispersing 0.5 mL of molten diet to each 1.5 cm^2 cell. After solidification, 0.1 mL enzyme treatments were dispersed on top of diet in each cell and the tray was gently rocked in an orbital shaker to spread the liquid uniformly over the diet surface. Trays were placed under clean airflow until the surface of each cell was uniformly dried. One or two 16-cell sections were used per treatment (the number in larvae treated was 16 or 32).
(§3) One healthy first instar larva was placed into each treatment cell, each 16-cell section was covered with a re-sealable lid and incubated at 27° C. and light-dark period of 16:8 hrs. After 7 days, and according to the species, the number of individuals in the following developmental categories was recorded.
(§4) Diamondback moth (Plutella xylostella): Dead Larva (lack of movement), Larva Stage I (≤50% relative size), Larva Stage II (100% relative size, full size), Early Pupa (light green color), Late Pupa (light-dark brown color), and Adult.
(§5) Negative/untreated controls were treated with filtered water and positive controls were treated with lethal doses of Bacillus thuringiensis subsp. Kurstaki (Btk) spores at 1000 ppm.

[4] = tested on: Btk resistant Diamondback moth; test: Diet-surface overlay (DSO) bioassay; settings: Table 45
Method: as §2, §3, §4, §5
However, both neutral proteases reduced the number of individuals reaching adult stage.

B1: Pseudomonas sp. Esterase (protein, listed as Pseudomonas sp.)
chain: MTEPLILQPVKPADACVIWLHGLGADRYDFLPVAEALQEILLSTRFVLPQAPTRPVTINGGYAMPSWYDIKAMSPARAIDRDELEASADRIIELIEEQRSSGIDASRIFLAGFSQGGAVVYHTAFLKWQGPLGGVLALSTYAPTFSDELELSASQQRIPVLSLHGQFDNVVQNSMGRTAYEYLKAHGVTVTWQEYPMEHEVLPEEIRDIGTWLSERLR
% Comparison to Control ([1]; base control = 100%, change in brackets): 90% (−10%) | Average cysts per g of root tissue ([1]; seed treatment, soybean 2830E3, concentrate = 4× volumetric concentration, base control 244.3): 220.2 cysts per g of root tissue | Difference in Percent Death of Nematodes for 0 to 24 Hours ([2]; Table 17, 40 μL per well, water control 4%): 22% | Difference in Percent Death of Nematodes for 0 to 24 Hours ([2]; Table 32, 40 μL of each treatment per well, water only 4%): 22% | difference in percent death during 24 hours ([2]; text to Table 32): 22%

B2: Beauveria bassiana Feruloyl Esterase A2 (protein, listed as Beauveria bassiana)
chain: MLSLLGFLGFAALAAAAPVRDQAFIPRTLVNRSIYDKLALYAGYTQLSNTGICARPSVPGVLYQFVESKDTDTQVSIWKVDAYKEFVIAIPGTSSARDNETNFDFALVPYQADNVRCPSCRVHKGYQAAWRSVMKQVQGNLTNLLGIHPDYTVTLTGHSLGGGLVSIAFPTLRNGPYNVTQAYTYGQPRAGNGAFANYVDGISGASDKEAGIFYRVTHANDLIPKLPPGIFGYKHSRTEYWESKPSMDNAASTYRCYGQEPADCNRNATGIDSKVHVTYAGMNVTCNKS
modifications: Feruloyl Esterase A2
Yield (soybean; control 63.99): 64.86 Bu/A | Yield (soybean; control 4303.4): 4361.9 Kg/ha | yield versus base seed treatment package, in words (soybean; text to Table 56, 1 fl oz/unit): increased the yield

B3: Sphingobium wenxiniae (PytH) Esterase (protein, listed as Sphingobium wenxiniae)
chain: MTVTDIILIHGALNRGACYDAVVPLLEARGYRVHAPDLTGHTPGDGGHLSVVDMEHYTRPVADILARAEGQSILLGHSLGGASISWLAQHHPDKVAGLIYLTAVLTAPGITPETFVLPGEPNRGTPHALDLIQPVDEGRGLQADFSRLERLREVFMGDYPGEGMPPAEQFIQTQSTVPFGTPNPMEGRALEIPRLYIEALDDVVIPIAVQRQMQKEFPGPVAVVSLPASHAPYYSMPERLAEAIADFADAPAEYRQTATKAGPDRPAGADGGRADRADLP
Yield (corn; control 205.5): 208.8 Bu/A | Yield (corn; control 13820.1): 14042.0 Kg/ha | yield versus base seed treatment package, in words (corn; text to Table 57, 0.5 fl oz/unit): increased the yield

B4: Bacillus thuringiensis Lipase (Lip1) (protein, listed as Bacillus thuringiensis)
chain: MRLMRRCVALLIVFFIMAPMISTNVRAGVVKELKTGFPDQEVFTPGEWFLGQKPANYDENKPPILFVQGRNGNADSWYGKTVYHDINDMYDYALKAGYQTVFIQLYDAAGKGSASQWDNGKLLAQKLEEIYNHFGKKVNIVAHSKGGIDTQAALVGYGANRFVGNVITLATPHHGSNLADLSYSWWAGWLASILGQKDDGTYSLQMGEMAKFRSTIDNNPAAKLNRYYTVTGTSWGPVFSALSMGGLYLSSYGSNDGLVNECSAKLPYGTHLFTDSRFDHDNIRKGSAVFARIEPYLRTANVPVPALVASSTSSNENIEQLNTTSNQSILGGELPQNQWIEQTVAVDKKAEGIVSILTASSDVEVQMISPKGKVYTNKDSVITTGEGESFFGGATIRTFKFDKMDVGEWKVKMMTKQSKDAYLVVSDYKTGAPFVLQMPTKVKANKSEYKLKKSPVAPEMKGDLSITVRVVNKEGKLVSEFNELQNVNNNTFTGALKNIKQPGVYNVTMDIKGMNKEGKSYSRTIVKSVYVEK
modifications: Lipase (Lip1 H192)
Dead Larva ([3]; individuals of n = 16 after 7 days, water 0): 0 | Larva Stage I ([3]; n = 16, water 0): 0 | Larva Stage II ([3]; n = 16, water 0): 0 | Early Pupa ([3]; n = 16, water 3): 3 | Late Pupa ([3]; n = 16, water 3): 13 | Adult ([3]; n = 16, water 10): 0 | Dead Larva ([4]; Btk resistant strain, individuals of n = 32 after 7 days, U/mL diet: SEQ 76 1.4, Bc 3.8, Pf 5.2, water 3): 1 | Adult ([4]; n = 32, doses as E86, water 0): 0 | Larva Stage I ([4]; n = 32, doses as E86, water 0): 9 | Larva Stage II ([4]; n = 32, doses as E86, water 0): 12 | Early Pupa ([4]; n = 32, doses as E86, water 7): 10 | Late Pupa ([4]; n = 32, doses as E86, water 22): 0
